Results published in paper PMC3392108 (Human Molecular Genetics, 2012).
Where no end group is shown, it is not given here.

Tests used:
Assay in all cases: fluorescence polarisation
[1] = biological target: human mitochondrial Hsp70 (mtHsp70), wild-type (human, UniProt P38646 47-679)
[2] = biological target: human mtHsp70 R126W PD variant (human, UniProt P38646 47-679, R126W)
[3] = biological target: human mtHsp70 P509S PD variant (human, UniProt P38646 47-679, P509S)
Sequence of human mtHsp70 P509S PD variant (P38646 47-679 P509S): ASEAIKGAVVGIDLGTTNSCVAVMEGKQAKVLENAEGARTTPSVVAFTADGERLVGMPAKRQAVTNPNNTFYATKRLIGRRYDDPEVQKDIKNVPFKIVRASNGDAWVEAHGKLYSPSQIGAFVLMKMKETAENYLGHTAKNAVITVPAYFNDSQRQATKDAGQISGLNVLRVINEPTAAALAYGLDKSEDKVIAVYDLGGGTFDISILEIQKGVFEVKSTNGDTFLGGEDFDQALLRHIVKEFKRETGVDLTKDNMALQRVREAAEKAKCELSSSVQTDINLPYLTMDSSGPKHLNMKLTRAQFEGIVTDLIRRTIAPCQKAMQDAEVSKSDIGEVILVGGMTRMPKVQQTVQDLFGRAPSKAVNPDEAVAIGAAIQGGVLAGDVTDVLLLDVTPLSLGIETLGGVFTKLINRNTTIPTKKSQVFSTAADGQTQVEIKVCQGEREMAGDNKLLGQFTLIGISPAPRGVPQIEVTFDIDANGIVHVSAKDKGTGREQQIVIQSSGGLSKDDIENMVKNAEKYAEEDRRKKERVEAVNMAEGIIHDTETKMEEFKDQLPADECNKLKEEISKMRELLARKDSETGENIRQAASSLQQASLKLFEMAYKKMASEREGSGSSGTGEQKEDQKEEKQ

Sequence of human mtHsp70 R126W PD variant (P38646 47-679 R126W): as the sequence (P38646 47-679 P509S) above, with R80W, S463P counted along it
Sequence of human mitochondrial Hsp70 (mtHsp70), wild-type (P38646 47-679): as the sequence (P38646 47-679 P509S) above, with S463P counted along it

Kd [1]: 15.6 ± 1.4 µM
Kd [2]: 13.6 ± 2.7 µM
Kd [3]: 15.7 ± 1.9 µM
Binder: ALLLSAPRR (also: fluorescein label, position not given here) [fluorescein-labeled P5 peptide (F-P5)]
